Data set [1] relates to HeLa Kyoto. Description: solubility in G1/S (NP-40 vs SDS abundance) (log2 ratio); higher = more soluble. To be noted: cell cycle stage: G1/S.
For data set [2], the system named is HeLa Kyoto. As to the kind of experiment: melting temperature (median over replicates), in situ; higher = more thermally stable.
Data set [3] has as its system HeLa Kyoto. Description: solubility change mitosis vs G1/S (difference of NP-40 vs SDS log2 ratios) (log2 ratio difference); higher = more soluble in mitosis.
Data set [4] deals with HeLa Kyoto. Description: thermal stability score vs G1/S (z-score of summed log2 fold changes over temperatures); higher = more thermally stable than in G1/S.
Where [5] appears, read: cell cycle stage: early G1 (4.5 h after nocodazole release).

The text below walks through data of the supplement of paper PMC5998384.
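For melting temperature (median over replicates), in situ in this document: HeLa Kyoto cells synchronized by double thymidine or nocodazole block, proteins quantified by TMT10plex mass spectrometry, three independent biological replicates.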
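For solubility change mitosis vs G1/S (difference of NP-40 vs SDS log2 ratios) in this document: synchronized HeLa Kyoto cells (double thymidine block for G1/S, nocodazole release for mitosis), protein amounts in NP-40 versus SDS lysates quantified by mass spectrometry, three biological replicates.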
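For solubility in G1/S (NP-40 vs SDS abundance) in this document: HeLa Kyoto cells arrested at G1/S by double thymidine block, proteins quantified by TMT10plex mass spectrometry in mild NP-40 versus SDS extracts, three biological replicates.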
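For thermal stability score vs G1/S (z-score of summed log2 fold changes over temperatures) in this document: synchronized HeLa Kyoto cells, proteins quantified by TMT10plex mass spectrometry, three biological replicates, mitosis taken 0.5 h after nocodazole release, G1/S directly after double thymidine block.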

In the case of “MTFYLFGIRSFPKLWKSPYLGLGPGHSYVSLFLADRCGIRNQQRLFSLKTMSPQNTKATNLIAKARYLRKDEGSNKQVYSVPHFFLAGAAKERSQMNSQTEDHALAPVRNTIQLPTQPLNSEEWDKLKEDLKENTGKTSFESWIISQMAGCHSSIDVAKSLLAWVAAKNNGIVSYDLLVKYLYLCVFHMQTSEVIDVFEIMKARYKTLEPRGYSLLIRGLIHSDRWREALLLLEDIKKVITPSKKNYNDCIQGALLHQDVNTAWNLYQELLGHDIVPMLETLKAFFDFGKDIKDDNYSNKLLDILSYLRNNQLYPGESFAHSIKTWFESVPGKQWKGQFTTVRKSGQCSGCGKTIESIQLSPEEYECLKGKIMRDVIDGGDQYRKTTPQELKRFENFIKSRPPFDVVIDGLNVAKMFPKVRESQLLLNVVSQLAKRNLRLLVLGRKHMLRRSSQWSRDEMEEVQKQASCFFADDISEDDPFLLYATLHSGNHCRFITRDLMRDHKACLPDAKTQRLFFKWQQGHQLAIVNRFPGSKLTFQRILSYDTVVQTTGDSWHIPYDEDLVERCSCEVPTKWLCLHQKT [KIAA0391]”, the “solubility in G1/S (log2)” value with HeLa Kyoto [1] worked out at 0.189. Further, the melting temperature in the data set with HeLa Kyoto [2] (cell cycle stage: G1/S) was 47.8 °C; in the data set with HeLa Kyoto [2] (cell cycle stage: mitosis) it was 48.4 °C. In the data set on HeLa Kyoto [3], the “solubility change mitosis (log2)” value is -0.118. For the same sequence, the thermal stability score in the data set with HeLa Kyoto [4] (setting [5]) amounted to 0.296; in the data set on HeLa Kyoto [4] (cell cycle stage: mitosis), 1.88.
“MTHWFHRNPLKATAPVSFNYYGVVTGPSASKICNDLRSSRARLLELFTDLSCNPEMMKNAADSYFSLLQGFINSLDESTQESKLRYIQNFKWTDTLQGQVPSAQQDAVFELISMGFNVALWYTKYASRLAGKENITEDEAKEVHRSLKIAAGIFKHLKESHLPKLITPAEKGRDLESRLIEAYVIQCQAEAQEVTIARAIELKHAPGLIAALAYETANFYQKADHTLSSLEPAYSAKWRKYLHLKMCFYTAYAYCYHGETLLASDKCGEAIRSLQEAEKLYAKAEALCKEYGETKGPGPTVKPSGHLFFRKLGNLVKNTLEKCQRENGFIYFQKIPTEAPQLELKANYGLVEPIPFEFPPTSVQWTPETLAAFDLTKRPKDDSTKPKPEEEVKPVKEPDIKPQKDTGCYIS [BROX]”: the “solubility in G1/S (log2)” value with HeLa Kyoto [1] stood at 0.511. Besides, the melting temperature was 49.6 °C in the data set with HeLa Kyoto [2] (cell cycle stage: G1/S) and 49.8 °C in the data set on HeLa Kyoto [2] (cell cycle stage: mitosis). Also, in the data set on HeLa Kyoto [3], the “solubility change mitosis (log2)” value was -0.114. For the same sequence, the thermal stability score was -0.298 in the data set with HeLa Kyoto [4] (setting [5]) and 0.407 in the data set with HeLa Kyoto [4] (cell cycle stage: mitosis).
In the case of “MTILPKKKPPPPDADPANEPPPPGPMPPAPRRGGGVGVGGGGTGVGGGDRDRDSGVVGARPRASPPPQGPLPGPPGALHRWALAVPPGAVAGPRPQQASPPPCGGPGGPGGGPGDALGAAAAGVGAAGVVVGVGGAVGVGGCCSGPGHSKRRRQAPGVGAVGGGSPEREEVGAGYNSEDEYEAAAARIEAMDPATVEQQEHWFEKALRDKKGFIIKQMKEDGACLFRAVADQVYGDQDMHEVVRKHCMDYLMKNADYFSNYVTEDFTTYINRKRKNNCHGNHIEMQAMAEMYNRPVEVYQYSTGTSAVEPINTFHGIHQNEDEPIRVSYHRNIHYNSVVNPNKATIGVGLGLPSFKPGFAEQSLMKNAIKTSEESWIEQQMLEDKKRATDWEATNEAIEEQVARESYLQWLRDQEKQARQVRGPSQPRKASATCSSATAAASSGLEEWTSRSPRQRSSASSPEHPELHAELGMKPPSPGTVLALAKPPSPCAPGTSSQFSAGADRATSPLVSLYPALECRALIQQMSPSAFGLNDWDDDEILASVLAVSQQEYLDSMKKNKVHRDPPPDKS [OTUD5]”, the “solubility in G1/S (log2)” value with HeLa Kyoto [1] is 0.259. Further, the melting temperature was determined as 51.6 °C in the data set with HeLa Kyoto [2] (cell cycle stage: G1/S) and 52.4 °C in the data set with HeLa Kyoto [2] (cell cycle stage: mitosis). In the data set with HeLa Kyoto [3], the “solubility change mitosis (log2)” value is 0.178. Further, the thermal stability score in the data set on HeLa Kyoto [4] (setting [5]) is -1.93; in the data set with HeLa Kyoto [4] (cell cycle stage: mitosis), 0.592.
As to “MTKSNGEEPKMGGRMERFQQGVRKRTLLAKKKVQNITKEDVKSYLFRNAFVLLTVTAVIVGTILGFTLRPYRMSYREVKYFSFPGELLMRMLQMLVLPLIISSLVTGMAALDSKASGKMGMRAVVYYMTTTIIAVVIGIIIVIIIHPGKGTKENMHREGKIVRVTAADAFLDLIRNMFPPNLVEACFKQFKTNYEKRSFKVPIQANETLVGAVINNVSEAMETLTRITEELVPVPGSVNGVNALGLVVFSMCFGFVIGNMKEQGQALREFFDSLNEAIMRLVAVIMWYAPVGILFLIAGKIVEMEDMGVIGGQLAMYTVTVIVGLLIHAVIVLPLLYFLVTRKNPWVFIGGLLQALITALGTSSSSATLPITFKCLEENNGVDKRVTRFVLPVGATINMDGTALYEALAAIFIAQVNNFELNFGQIITISITATAASIGAAGIPQAGLVTMVIVLTSVGLPTDDITLIIAVDWFLDRLRTTTNVLGDSLGAGIVEHLSRHELKNRDVEMGNSVIEENEMKKPYQLIAQDNETEKPIDSETKM [SLC1A3]”, the “solubility in G1/S (log2)” value in the data set on HeLa Kyoto [1] was -0.131. In addition, the melting temperature in the data set with HeLa Kyoto [2] (cell cycle stage: G1/S) turned out to be 61.8 °C; in the data set on HeLa Kyoto [2] (cell cycle stage: mitosis), 58 °C. The “solubility change mitosis (log2)” value with HeLa Kyoto [3] is 0.0284. Also, the thermal stability score in the data set with HeLa Kyoto [4] (setting [5]) is -4.57; in the data set with HeLa Kyoto [4] (cell cycle stage: mitosis) it was -5.19.
Regarding “MTLDMDAVLSDFVRSTGAEPGLARDLLEGKNWDVNAALSDFEQLRQVHAGNLPPSFSEGSGGSRTPEKGFSDREPTRPPRPILQRQDDIVQEKRLSRGISHASSSIVSLARSHVSSNGGGGGSNEHPLEMPICAFQLPDLTVYNEDFRSFIERDLIEQSMLVALEQAGRLNWWVSVDPTSQRLLPLATTGDGNCLLHAASLGMWGFHDRDLMLRKALYALMEKGVEKEALKRRWRWQQTQQNKESGLVYTEDEWQKEWNELIKLASSEPRMHLGTNGANCGGVESSEEPVYESLEEFHVFVLAHVLRRPIVVVADTMLRDSGGEAFAPIPFGGIYLPLEVPASQCHRSPLVLAYDQAHFSALVSMEQKENTKEQAVIPLTDSEYKLLPLHFAVDPGKGWEWGKDDSDNVRLASVILSLEVKLHLLHSYMNVKWIPLSSDAQAPLAQPESPTASAGDEPRSTPESGDSDKESVGSSSTSNEGGRRKEKSKRDREKDKKRADSVANKLGSFGKTLGSKLKKNMGGLMHSKGSKPGGVGTGLGGSSGTETLEKKKKNSLKSWKGGKEEAAGDGPVSEKPPAESVGNGGSKYSQEVMQSLSILRTAMQGEGKFIFVGTLKMGHRHQYQEEMIQRYLSDAEERFLAEQKQKEAERKIMNGGIGGGPPPAKKPEPDAREEQPTGPPAESRAMAFSTGYPGDFTIPRPSGGGVHCQEPRRQLAGGPCVGGLPPYATFPRQCPPGRPYPHQDSIPSLEPGSHSKDGLHRGALLPPPYRVADSYSNGYREPPEPDGWAGGLRGLPPTQTKCKQPNCSFYGHPETNNFCSCCYREELRRREREPDGELLVHRF [OTUD7B]”, the “solubility in G1/S (log2)” value with HeLa Kyoto [1] came to 0.376. The melting temperature was 50.8 °C in the data set on HeLa Kyoto [2] (cell cycle stage: G1/S) and 50.9 °C with HeLa Kyoto [2] (cell cycle stage: mitosis). In addition, the “solubility change mitosis (log2)” value with HeLa Kyoto [3] was -0.0993. Besides, the thermal stability score with HeLa Kyoto [4] (setting [5]) was 0.347; with HeLa Kyoto [4] (cell cycle stage: mitosis), 0.243.
